Assays:
human IL-36R (human) = human IL-36R (human) (UniProt Q9HB29); assay: flow cytometry on CHO-K1 cells expressing human IL-36R; fit value in the second table under the plot for a flat curve (row ECF corresponds to EC90 of Table 8; no unit in the table, axis in µg/mL)
monkey IL-36R (monkey) = assay: flow cytometry on CHO-K1 cells expressing monkey IL-36R; fit value in the second table under the plot for a flat curve (row ECF corresponds to EC90 of Table 8; no unit in the table, axis in µg/mL)

Sequence of human IL-36R (human) (Q9HB29 20-575): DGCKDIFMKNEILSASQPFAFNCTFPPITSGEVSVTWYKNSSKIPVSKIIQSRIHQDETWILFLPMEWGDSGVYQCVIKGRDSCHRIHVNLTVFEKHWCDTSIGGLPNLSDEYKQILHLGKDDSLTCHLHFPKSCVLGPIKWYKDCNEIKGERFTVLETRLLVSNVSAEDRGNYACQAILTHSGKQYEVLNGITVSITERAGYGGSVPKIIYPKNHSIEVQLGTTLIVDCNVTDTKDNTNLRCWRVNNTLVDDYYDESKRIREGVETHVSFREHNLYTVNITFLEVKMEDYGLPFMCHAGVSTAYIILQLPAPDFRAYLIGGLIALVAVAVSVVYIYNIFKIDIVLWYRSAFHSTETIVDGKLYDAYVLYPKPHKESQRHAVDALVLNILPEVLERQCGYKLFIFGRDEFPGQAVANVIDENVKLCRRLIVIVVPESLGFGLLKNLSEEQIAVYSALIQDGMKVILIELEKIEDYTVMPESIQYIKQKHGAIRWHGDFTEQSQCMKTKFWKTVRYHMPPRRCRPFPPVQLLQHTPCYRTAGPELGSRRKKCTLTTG

ECF (human IL-36R (human)): 0.000494 µg/mL | ECF (monkey IL-36R (monkey)): 0.000457 µg/mL
Substance: TNP IgG1 (Fc silence) negative control antibody 900543

From patent publication US20230399409A1
